From publication PMC8158962, “Modulation of fungal virulence through CRZ1 regulated F-BAR-dependent actin remodeling and endocytosis in chickpea infecting phytopathogen Ascochyta rabiei” come the findings set out here.

This data set has as its target T1, His-ArCRZ1 (Ascochyta rabiei, UniProt A0A163H1V7 1-755).
T1 sequence: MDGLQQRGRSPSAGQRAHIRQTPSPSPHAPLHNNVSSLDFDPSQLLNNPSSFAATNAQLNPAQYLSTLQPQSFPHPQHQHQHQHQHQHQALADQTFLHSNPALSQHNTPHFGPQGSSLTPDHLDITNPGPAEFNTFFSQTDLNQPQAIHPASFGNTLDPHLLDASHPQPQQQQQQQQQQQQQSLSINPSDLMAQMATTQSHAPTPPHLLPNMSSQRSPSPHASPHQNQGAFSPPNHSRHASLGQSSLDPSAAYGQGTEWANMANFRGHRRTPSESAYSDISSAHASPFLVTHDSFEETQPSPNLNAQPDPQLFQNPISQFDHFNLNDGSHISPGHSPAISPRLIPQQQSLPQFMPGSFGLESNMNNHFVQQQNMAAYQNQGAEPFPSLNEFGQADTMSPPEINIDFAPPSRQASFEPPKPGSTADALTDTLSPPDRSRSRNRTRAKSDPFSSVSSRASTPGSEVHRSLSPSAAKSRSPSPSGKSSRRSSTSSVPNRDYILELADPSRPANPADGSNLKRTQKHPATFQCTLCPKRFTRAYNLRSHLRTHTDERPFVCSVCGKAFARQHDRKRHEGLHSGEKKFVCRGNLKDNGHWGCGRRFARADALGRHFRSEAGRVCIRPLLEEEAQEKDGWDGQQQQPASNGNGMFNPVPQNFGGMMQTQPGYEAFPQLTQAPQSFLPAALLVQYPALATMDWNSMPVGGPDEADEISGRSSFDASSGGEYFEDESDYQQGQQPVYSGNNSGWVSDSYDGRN
Kind of data set: EMSA; 15 mM HEPES pH 7.6, 0.2 mM MgCl2, 35 mM KCl, 1 mM DTT, 1% glycerol, 1 mg poly(dI-dC) (so in the source), 10 ng labelled DNA, 30 uL, 25 min, room temperature; 6% native PAGE. The note with it: protein: recombinant; tags: His (pET28a(+)); label: 32P end label; blunt. Background: A gel shift assay detects complexes by their altered migration in electrophoresis.

B1: WT CDRE (GRF/GRR), 58 bp (dsDNA)
DNA 1: CTCCAGCCATCGAGCCCCACCACCAATTGGGCCGCCAGTGAGAGCCCCAAGGCCGTCC
DNA 2: GGACGGCCTTGGGGCTCTCACTGGCGGCCCAATTGGTGGTGGGGCTCGATGGCTGGAG
As for B1, the binding result is recorded as “binds”.
